B1: GLS3000 Y32P (antibody, name in Kabat numbering, V domains shown)
VH: QVQLVESGGGVVQPGRSLRLSCAASGFTFSNAWMHWVRQAPGKGLEWVAQIKAKSNNYATYYAESVKGRFTISRDDSKNSLYLQMNSLKTEDTAVYYCRYVHYGAYYGVDAWGQGTTVTVSS
VL: DIVMTQSPLSLPVTPGEPASISCRSSQSLVHSNRNTPLHWYQQKPGQAPRLLIYKVSNRFSGVPDRFSGSGSGTDFTLKISRVEAEDVGVYYCGQGTQVPYTFGQGTKLEIK
notes: one-arm format as m2
B2: GLS3000 Y96H (antibody, name in Kabat numbering, V domains shown)
VH: QVQLVESGGGVVQPGRSLRLSCAASGFTFSNAWMHWVRQAPGKGLEWVAQIKAKSNNYATYYAESVKGRFTISRDDSKNSLYLQMNSLKTEDTAVYYCRYVHYGAYYGVDAWGQGTTVTVSS
VL: DIVMTQSPLSLPVTPGEPASISCRSSQSLVHSNRNTYLHWYQQKPGQAPRLLIYKVSNRFSGVPDRFSGSGSGTDFTLKISRVEAEDVGVYYCGQGTQVPHTFGQGTKLEIK
notes: one-arm format as m2
B3: GLS3000 Y96D (antibody, name in Kabat numbering, V domains shown)
VH: QVQLVESGGGVVQPGRSLRLSCAASGFTFSNAWMHWVRQAPGKGLEWVAQIKAKSNNYATYYAESVKGRFTISRDDSKNSLYLQMNSLKTEDTAVYYCRYVHYGAYYGVDAWGQGTTVTVSS
VL: DIVMTQSPLSLPVTPGEPASISCRSSQSLVHSNRNTYLHWYQQKPGQAPRLLIYKVSNRFSGVPDRFSGSGSGTDFTLKISRVEAEDVGVYYCGQGTQVPDTFGQGTKLEIK
notes: one-arm format as m2
B4: GLS3000 Y96F (antibody, name in Kabat numbering, V domains shown)
VH: QVQLVESGGGVVQPGRSLRLSCAASGFTFSNAWMHWVRQAPGKGLEWVAQIKAKSNNYATYYAESVKGRFTISRDDSKNSLYLQMNSLKTEDTAVYYCRYVHYGAYYGVDAWGQGTTVTVSS
VL: DIVMTQSPLSLPVTPGEPASISCRSSQSLVHSNRNTYLHWYQQKPGQAPRLLIYKVSNRFSGVPDRFSGSGSGTDFTLKISRVEAEDVGVYYCGQGTQVPFTFGQGTKLEIK
notes: one-arm format as m2
B5: GLS3000 Y96E (antibody, name in Kabat numbering, V domains shown)
VH: QVQLVESGGGVVQPGRSLRLSCAASGFTFSNAWMHWVRQAPGKGLEWVAQIKAKSNNYATYYAESVKGRFTISRDDSKNSLYLQMNSLKTEDTAVYYCRYVHYGAYYGVDAWGQGTTVTVSS
VL: DIVMTQSPLSLPVTPGEPASISCRSSQSLVHSNRNTYLHWYQQKPGQAPRLLIYKVSNRFSGVPDRFSGSGSGTDFTLKISRVEAEDVGVYYCGQGTQVPETFGQGTKLEIK
notes: one-arm format as m2
B6: GLS3000 Y96L (antibody, name in Kabat numbering, V domains shown)
VH: QVQLVESGGGVVQPGRSLRLSCAASGFTFSNAWMHWVRQAPGKGLEWVAQIKAKSNNYATYYAESVKGRFTISRDDSKNSLYLQMNSLKTEDTAVYYCRYVHYGAYYGVDAWGQGTTVTVSS
VL: DIVMTQSPLSLPVTPGEPASISCRSSQSLVHSNRNTYLHWYQQKPGQAPRLLIYKVSNRFSGVPDRFSGSGSGTDFTLKISRVEAEDVGVYYCGQGTQVPLTFGQGTKLEIK
notes: one-arm format as m2
B7: CE115HA000 H35A (antibody, name in Kabat numbering, V domains shown)
VH: QVQLVESGGGVVQPGRSLRLSCAASGFTFSNAWMAWVRQAPGKGLEWVAQIKAKSNNYATYYAESVKGRFTISRDDSKNSLYLQMNSLKTEDTAVYYCRYVHYGAYYGVDAWGQGTTVTVSS
VL: DIVMTQSPLSLPVTPGEPASISCRSSQSLVHSNRNTYLHWYQQKPGQAPRLLIYKVSNRFSGVPDRFSGSGSGTDFTLKISRVEAEDVGVYYCGQGTQVPYTFGQGTKLEIK
B8: CE115HA000 A52aS (antibody, name in Kabat numbering, V domains shown)
VH: QVQLVESGGGVVQPGRSLRLSCAASGFTFSNAWMHWVRQAPGKGLEWVAQIKSKSNNYATYYAESVKGRFTISRDDSKNSLYLQMNSLKTEDTAVYYCRYVHYGAYYGVDAWGQGTTVTVSS
VL: DIVMTQSPLSLPVTPGEPASISCRSSQSLVHSNRNTYLHWYQQKPGQAPRLLIYKVSNRFSGVPDRFSGSGSGTDFTLKISRVEAEDVGVYYCGQGTQVPYTFGQGTKLEIK
B9: CE115HA000 A56D (antibody, name in Kabat numbering, V domains shown)
VH: QVQLVESGGGVVQPGRSLRLSCAASGFTFSNAWMHWVRQAPGKGLEWVAQIKAKSNNYDTYYAESVKGRFTISRDDSKNSLYLQMNSLKTEDTAVYYCRYVHYGAYYGVDAWGQGTTVTVSS
VL: DIVMTQSPLSLPVTPGEPASISCRSSQSLVHSNRNTYLHWYQQKPGQAPRLLIYKVSNRFSGVPDRFSGSGSGTDFTLKISRVEAEDVGVYYCGQGTQVPYTFGQGTKLEIK
B10: CE115HA000 A52aG (antibody, name in Kabat numbering, V domains shown)
VH: QVQLVESGGGVVQPGRSLRLSCAASGFTFSNAWMHWVRQAPGKGLEWVAQIKGKSNNYATYYAESVKGRFTISRDDSKNSLYLQMNSLKTEDTAVYYCRYVHYGAYYGVDAWGQGTTVTVSS
VL: DIVMTQSPLSLPVTPGEPASISCRSSQSLVHSNRNTYLHWYQQKPGQAPRLLIYKVSNRFSGVPDRFSGSGSGTDFTLKISRVEAEDVGVYYCGQGTQVPYTFGQGTKLEIK
B11: CE115HA000 A32Y (antibody, name in Kabat numbering, V domains shown)
VH: QVQLVESGGGVVQPGRSLRLSCAASGFTFSNYWMHWVRQAPGKGLEWVAQIKAKSNNYATYYAESVKGRFTISRDDSKNSLYLQMNSLKTEDTAVYYCRYVHYGAYYGVDAWGQGTTVTVSS
VL: DIVMTQSPLSLPVTPGEPASISCRSSQSLVHSNRNTYLHWYQQKPGQAPRLLIYKVSNRFSGVPDRFSGSGSGTDFTLKISRVEAEDVGVYYCGQGTQVPYTFGQGTKLEIK
B12: CE115HA000 A52aE (antibody, name in Kabat numbering, V domains shown)
VH: QVQLVESGGGVVQPGRSLRLSCAASGFTFSNAWMHWVRQAPGKGLEWVAQIKEKSNNYATYYAESVKGRFTISRDDSKNSLYLQMNSLKTEDTAVYYCRYVHYGAYYGVDAWGQGTTVTVSS
VL: DIVMTQSPLSLPVTPGEPASISCRSSQSLVHSNRNTYLHWYQQKPGQAPRLLIYKVSNRFSGVPDRFSGSGSGTDFTLKISRVEAEDVGVYYCGQGTQVPYTFGQGTKLEIK
B13: CE115HA000 A52aP (antibody, name in Kabat numbering, V domains shown)
VH: QVQLVESGGGVVQPGRSLRLSCAASGFTFSNAWMHWVRQAPGKGLEWVAQIKPKSNNYATYYAESVKGRFTISRDDSKNSLYLQMNSLKTEDTAVYYCRYVHYGAYYGVDAWGQGTTVTVSS
VL: DIVMTQSPLSLPVTPGEPASISCRSSQSLVHSNRNTYLHWYQQKPGQAPRLLIYKVSNRFSGVPDRFSGSGSGTDFTLKISRVEAEDVGVYYCGQGTQVPYTFGQGTKLEIK
B14: CE115HA000 A52aD (antibody, name in Kabat numbering, V domains shown)
VH: QVQLVESGGGVVQPGRSLRLSCAASGFTFSNAWMHWVRQAPGKGLEWVAQIKDKSNNYATYYAESVKGRFTISRDDSKNSLYLQMNSLKTEDTAVYYCRYVHYGAYYGVDAWGQGTTVTVSS
VL: DIVMTQSPLSLPVTPGEPASISCRSSQSLVHSNRNTYLHWYQQKPGQAPRLLIYKVSNRFSGVPDRFSGSGSGTDFTLKISRVEAEDVGVYYCGQGTQVPYTFGQGTKLEIK
B15: CE115HA000 A52aV (antibody, name in Kabat numbering, V domains shown)
VH: QVQLVESGGGVVQPGRSLRLSCAASGFTFSNAWMHWVRQAPGKGLEWVAQIKVKSNNYATYYAESVKGRFTISRDDSKNSLYLQMNSLKTEDTAVYYCRYVHYGAYYGVDAWGQGTTVTVSS
VL: DIVMTQSPLSLPVTPGEPASISCRSSQSLVHSNRNTYLHWYQQKPGQAPRLLIYKVSNRFSGVPDRFSGSGSGTDFTLKISRVEAEDVGVYYCGQGTQVPYTFGQGTKLEIK

Molecular target: CD3ε homodimer protein (human, UniProt P07766 23-126, limits assumed)
Assay: SPR, immobilized CD3ε homodimer;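 further: biacore T200 surface plasmon resonance at 25 °C, antibody variants flowed as analytes over amine-coupled CD3ε homodimer on a CM4 chip, variant binding amount divided by that of GLS3000 antibody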

Sequence of CD3ε homodimer protein (human, UniProt P07766 23-126, limits assumed) (P07766 23-126 limits assumed): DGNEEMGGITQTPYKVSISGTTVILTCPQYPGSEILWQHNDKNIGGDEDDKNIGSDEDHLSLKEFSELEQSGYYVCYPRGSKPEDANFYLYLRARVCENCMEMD

Point of comparison: B1, “ratio of amounts bound (vs GLS3000)” value 0.24. Against it:
- B2 — lower, 0.23
- B3 — lower, 0.17
- B4 — higher, 1.17
- B5 — lower, 0.17
- B6 — higher, 0.32

Molecular target: T1, CD3ε homodimer protein (human, UniProt P07766 23-126, limits assumed, sulfo-tag or biotin label in some ECL assays)
T1 construct: also called human CD3ε homodimer protein; CD3 (CD3ε)
Assay: SPR, CD3ε homodimer on chip;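 further: biacore SPR with antibody variants flowed as analyte over amine-coupled CD3ε homodimer on a CM chip, bound amount of each single-residue H chain variant over that of parent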

T1 sequence (P07766 23-126 limits assumed): as above

Point of comparison: B9, “ratio of amounts bound vs CE115HA000” value 0.51. Against it:
- B7 — lower, 0.17
- B8 — higher, 1.05
- B10 — higher, 0.81
- B11 — lower, 0.33
- B12 — higher, 0.57
- B13 — lower, 0.15
- B14 — higher, 1.34
- B15 — higher, 0.52

Reference: patent US20220040297A1 (Chugai, published 2022)
